From patent publication US20210017265A1 (RIKEN, published 2021)

Columns and labels:
[1] = molecular target: human TGF-β1-LAP (amino acid residues position-30 to position-390), recombinant, Example 4 (human) (UniProt P01137); experiment: SPR, Biacore T200; antibody immobilised on CM5, analyte 1.56-25 nM
[2] = molecular target: complex of human TGF-β1 LAP-D and A2D109 antibody Fab fragment (human) (UniProt P01137); experiment: SPR, Biacore T200; antibody immobilised on CM5, analyte is the preformed LAP/A2D109 Fab complex, 1.56-25 nM
Chain of complex of human TGF-β1 LAP-D and A2D109 antibody Fab fragment (human) (P01137 30-390, one chain of several): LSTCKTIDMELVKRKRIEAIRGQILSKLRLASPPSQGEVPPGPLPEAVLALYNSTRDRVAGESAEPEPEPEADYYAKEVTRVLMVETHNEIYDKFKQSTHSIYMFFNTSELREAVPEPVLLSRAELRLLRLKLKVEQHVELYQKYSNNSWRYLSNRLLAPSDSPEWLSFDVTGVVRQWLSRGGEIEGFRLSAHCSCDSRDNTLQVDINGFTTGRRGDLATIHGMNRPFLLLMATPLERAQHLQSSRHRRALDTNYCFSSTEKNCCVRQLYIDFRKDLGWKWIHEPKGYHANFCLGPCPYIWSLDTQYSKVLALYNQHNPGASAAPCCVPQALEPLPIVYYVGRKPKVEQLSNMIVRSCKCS

[3] = molecular target: T1, human TGF-β1-LAP (amino acid residues position-30 to position-390), recombinant, Example 4 (human, UniProt P01137 30-390); experiment: complex formation, gel filtration
T1 construct: Expressed in HEK293F cells behind an Igk signal with a TEV-cleavable His tag, which was cut off; Stated molecular weight 41653 Da; also called human TGF-β1 LAP-D; TGF-β LAP
T1 sequence (P01137 30-390): as the sequence (P01137 30-390, one chain of several) above
Procedure: A Fab fragment (A2D109 Fab) was prepared from the A2D109 antibody using Pierce (trademark) Mouse IgG1 Fab and F(ab′)2 Preparation Kit (manufactured by Thermo Fisher). The concrete operation of the procedure was carried out in accordance with the manual included in the kit. A reaction solution produced by the procedure was purified by gel filtration using Superdex 200 Increase 10/300 GL (manufactured by GE Healthcare). A 50-kDa elution fraction was collected, and the fraction was used as A2D109 Fab. Purified recombinant TGF-β1-LAP and purified A2D109 Fab were mixed together at a molar mixing ratio of 1:1. A complex thus produced was purified by gel filtration chromatography (HiLoad 16/600 Superdex 200 pg, manufactured by GE Healthcare) using a column equilibrated with a buffer composed of 20 mM Tris-HCl (pH 8.0), 150 mM NaCl and 10% glycerol.

[4] = molecular target: T1, human TGF-β1-LAP (amino acid residues …); experiment: SPR, Biacore T200; antibody immobilised on CM5, analyte 1.56-25 nM
Procedure: (§1) Each of the anti-LAP-D antibody (A10) and the BAM2462 antibody was immobilized on a Biacore (registered trademark) sensor chip Series S Sensor Chip CM5 (manufactured by GE Healthcare). The amounts of these antibodies immobilized were 2027 RU and 310 RU, respectively. Each of a solution of human TGF-β1 LAP and a solution of a complex of human TGF-β1 LAP and A2D109 Fab was diluted with a buffer composed of 10 mM of HEPES-NaOH (pH 7.5), 150 mM of NaCl, 3 mM of EDTA and 0.005% of Surfactant P-20 to prepare solutions having various concentrations. Each of these solutions was fed to Biacore (registered trademark) T200 (manufactured by GE Healthcare). The analyte concentration in each of the solutions and the measurement conditions are shown below. Measurement data were analyzed using Biacore (registered trademark) Evaluation software to acquire date on the affinity of each of the antibodies.

[5] = molecular target: T2, complex of human TGF-β1 LAP-D and A2D109 antibody Fab fragment (human, UniProt P01137 30-390); experiment: SPR, Biacore T200; antibody immobilised on CM5, analyte is the preformed LAP/A2D109 Fab complex, 1.56-25 nM
T2 construct: Preformed complex, mixed 1:1 by moles and purified by gel filtration; Stated molecular weight 89514 Da; Used as the SPR analyte; also called TGF-β LAP-A2D109Fab; complex of human TGF-β1 LAP and A2D109 Fab
T2 sequence (P01137 30-390, one chain of several): as above
Procedure: as §1

Chain of human TGF-β1-LAP (amino acid residues position-30 to position-390), recombinant, Example 4 (human) (P01137 30-390): as the sequence (P01137 30-390, one chain of several) above

anti-human LAP TGF-β1 antibody (BAM2462, manufactured by R&D Systems)
Kd [1]: 0.0167 nM | koff [1]: 2.34e-05 s⁻¹ | kon [1]: 1.4e+06 M⁻¹ s⁻¹ | Kd [2]: 0.345 nM | koff [2]: 0.000154 s⁻¹ | kon [2]: 447000 M⁻¹ s⁻¹

B1: A2D109 antibody Fab fragment (Fab, V domains shown)
VH: EVQLQQSGAELVRPGASVKLSCKASGYTFTSYWMNWVKQRPGQGLEWIGMIDPSDSETHYNQMFKDKATLTVDKSSSTAYMQLSSLTSEDSAVYYCVNWPYALDYWGQGTSVTVSS
VL: QIVLTQSPAIMSASPGEKVTMTCSASSSVSYMHWFQQKPGTSPKLWIYSTSNLASGVPARFSGSGSGTSYSLTISRMEAEDAATYYCQQRSSYPFTFGSGTKLEIKR
notes: Fab made from the mouse A2D109 antibody with a Mouse IgG1 Fab preparation kit; 50-kDa gel filtration fraction; the constant parts of the Fab are not; also called A2D109 Fab; A2D109Fab
binding result [3]: binds

B2: anti-LAP-D antibody (A10) (antibody, mouse IgG1, kappa, V domains shown)
VH: QVQLQQPGAELVRPGASVKLSCKTSGYSFTRFWMNWVRQRPGQGLEWIGMIHSSDSITRLNQKFKDKATLTLDYSSSTAYMQLSSPTSEDSAVYYCARGYDEYSAMDYWGQGTSVPVSS
VL: DIQMTQSPSSLSASLGERVSLTCRASHEISGYLGWLQRQPDGTIKRLIYAASTLDSGVPKRFSGSRSGSDYSLTISSLESEDFADYYCLQYASYPFTFGSGTKLEVKR
notes: Biotin-labelled when used as ELISA detection antibody; immobilised on a CM5 chip in SPR; also called isolated monoclonal antibody of the present embodiment
Kd [4]: 0.214 nM | koff [4]: 4.17e-05 s⁻¹ | kon [4]: 195000 M⁻¹ s⁻¹ | koff [5]: 0.000201 s⁻¹ | kon [5]: 304000 M⁻¹ s⁻¹
